Changes are numbered by the printed parent chain.

The source of these data is patent publication US20090238823A1 (published 2009).

The target in test [1] is T1, Human TSLP (mammalian produced) (human, UniProt Q969D9 29-159).
T1 construct: also called Hu TSLP; huTSLPwtpHF
Briefly: SPR (Biacore 3000), antibody captured by anti-human Fc gamma, TSLP in solution, 25 C.
Procedure: (§1) The surface plasmon resonance experiments described in this patent application were conducted at 25° C. using a Biacore 3000 instrument (Biacore International AB, Uppsala, Sweden) equipped with a CM4 sensor chip. Anti-Fcγ specific capture antibodies were covalently immobilized to two flow cells on the CM4 chip using standard amine-coupling chemistry with HBS-EP as the running buffer. Briefly, each flow cell was activated with a 1:1 (v/v) mixture of 0.1 M NHS and 0.4 M EDC. AffiniPure Goat Anti-Human IgG, Fcγ Fragment Specific antibody (Jackson ImmunoResearch Inc. West Grove, Pa.) at 30 ug/ml in 10 mM sodium acetate, pH 5.0 was immobilized with a target level of 3,000 RUs on two flow cells. Residual reactive surfaces were deactivated with an injection of 1 M ethanolamine. The running buffer was then switched to HBS-EP+0.1 mg/ml BSA for all remaining steps.
(§2) The following antibodies were tested. […] No antibody was captured on the control flow cell surface. Human, cyno, or murine TSLP at various concentrations, along with buffer blanks were then flown over the two flow cells. The concentration ranges for human and cyno TSLP were from 0.44-100 nM while the concentration range for murine TSLP was from 8.2-6000 nM. A flow rate of 50 ul/min was used and a 2 minute association phase followed by a 10-30 minute dissociation phase. After each cycle the surfaces were regenerated with a 30 second injection of 10 mM glycine pH 1.5. Fresh antibody was then captured on the test flow cell to prepare for the next cycle.

Test [2] deals with T2, Cynomolgus TSLP (mammalian produced) (cynomolgus).
T2 construct: The Biacore construct is not specified beyond mammalian production; also called Cyno TSLP; cynomolgus TSLPwtpHF
T2 chain: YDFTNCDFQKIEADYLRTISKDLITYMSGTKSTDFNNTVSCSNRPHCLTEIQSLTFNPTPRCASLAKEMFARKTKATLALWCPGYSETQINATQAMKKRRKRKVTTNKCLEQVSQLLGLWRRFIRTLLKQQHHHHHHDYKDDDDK
The description is as above.
Procedure: as §1, §2

The target of test [3] is T3, Murine TSLP (murine, UniProt Q9JIE6 20-140).
T3 construct: also called Mu TSLP
T3 sequence (looked up): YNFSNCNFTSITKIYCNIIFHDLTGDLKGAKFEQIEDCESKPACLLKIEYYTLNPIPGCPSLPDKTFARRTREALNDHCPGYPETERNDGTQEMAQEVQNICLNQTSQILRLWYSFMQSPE
Briefly: SPR (Biacore 3000), antibody captured by anti-human Fc gamma, TSLP in solution.

The target in test [4] is T3, Murine TSLP. Briefly: SPR (Biacore 3000), antibody captured by anti-human Fc gamma, TSLP in solution, 25 C.
Procedure: as §1, §2

B1: A2 IgG1 (antibody, V domains shown)
VH: EVQLVESGGVVVQPGGSLRLSCAASGFTFDDFTMHWVRQAPGKGLEWVSLISWDGGSTYYADSVKGRFTISRDNSKNSLYMQMNSLRTEDSALYYCARGPYYYFYGMDVWGQGTTVTVSS
VL: SSELTQDPAVSVALGQTVRITCQGDSLRTYYASWYQQKPGQAPILVISDKNNRPSGIPDRFSGSSSGNTASLTITGAQAEDEADYYCNSRDSSDNHLVVFGGGTKLTVL
notes: also called L2H2
B1: in test [1], the Kd amounted to 0.203 nM and the koff stood at 0.000349 s⁻¹. In test [2], the Kd was determined as 0.0468 nM and the koff was found to be 0.000104 s⁻¹.

B2: A2 IgG2 (antibody, V domains shown)
VH: B1 VH
VL: B1 VL
notes: also called L2H2
For the molecule B2, in test [3], the binding result is reported as “no binding (tested: murine TSLP 8.2-6000 nM)”. In test [1], this molecule returned a Kd of 0.157 nM and a koff of 0.000285 s⁻¹. Further, in test [2], the affinity, expressed as Kd, was 0.0376 nM and the dissociation rate constant (koff) is 9.42e-05 s⁻¹.

B3: A3 IgG4 (antibody, V domains shown)
VH: QVQLVQSGAEVKKPGASVKVSCKASGYTFTDYYMYWVRQAPGQGPEWMGWINPNSGGTNYVQKFQGRVTMTRDTSISTAYMELSRMRSDDTAVYYCARDGGSSGWPLFAYWGLGTLVTVSS
VL: QSVLTQPPSVSGAPGQRVTISCTGSSSNIGAGFDVHWYQQLPGTAPKLLIYDNNNRPSGVPDRFSGSKSGTSASLAITGLQAEDEADYYCQSYDSNLSGSIVVFGGGTKLTVL
notes: also called L3H3
In test [1], B3 yielded a Kd of 0.17 nM and a koff of 0.00027 s⁻¹.

B4: A4 IgG4 (antibody, V domains shown)
VH: QVQLVQSGAEVKKPGASVKVSCKASGYIFTGDYMHWVRQAPGQGLEWMGWINPNSGGTNHARKFQGRVTMTRDTSISTAYMELSRLRSDDTAVYYCVRDRGTSGWPLFDYWGQGTLVTVSS
VL: B3 VL with Q40L, Y51F
notes: also called L4H4
Take B4: in test [1], the Kd was found to be 0.34 nM and the koff is 0.00033 s⁻¹.

B5: A5 IgG2 (antibody, V domains shown)
VH: QMQLVESGGGVVQPGRSLRLSCAASGFTFRTYGMHWVRQAPGKGLEWVAVIWYDGSNKHYADSVKGRFTITRDNSKNTLNLQMNSLRAEDTAVYYCARAPQWELVHEAFDIWGQGTMVTVSS
VL: SYVLTQPPSVSVAPGQTARITCGGNNLGSKSVHWYQQKPGQAPVLVVYDDSDRPSWIPERFSGSNSGNTATLTISRGEAGDEADYYCQVWDSSSDHVVFGGGTKLTVL
notes: also called L5H5
Turning to B5, the Kd in test [2] came out at 0.0512 nM; in test [4], 377 nM.
